In the DeepSol protein solubility set:

Assay: soluble on expression in E. coli; label from the status in PepcDB or PDB records

Sequence	soluble on expression in E. coli
MGSDKIHHHHHHMKILHLGKFYPLKGGMEKAILDIVRGISMQGVTCDLLCVSTEKAGVFPLNEHAHIYAMPSVCNVNSVRISPLLIPTLRKLCPNYDIIHIHCPNPMANLALYLSGYRGKVVLHWHSDILKQKYALKLYKPLQTWLIRRADVIIGTSPVYLENSPFLRGMEHKFRIVPLGCEAIVPSADRVSDIRKQYKGKRIIFALGRLIAYKGFRFLIEAARYLDDGYVVLIGGTGPLYNKLLKQINEENLQGKVCLLGYVTDDEVAQYYGACDVFCLSSVWKTEAFGLVQIEAMSCGKPVVATNIEGSGVPWVNRNGYSGLNVEPENPEALAKAIMKITSSEEAYRTYSRQARAHYNKMFVKERMLAGYEQVYASLYHEK	not soluble
MAPDVFTVVAEPQRRRILERLRAGHASVGELVDQLALPQPTVSKHLRVLRQAGFVTCRTAAQQRIYSLHREPFDEFDAWLQPYRRLWANHLDALGRHLESKETPS	not soluble
GSHSMRYFYTAVSRPGRGEPHFIAVGYVDDTQFVRFDSDAASPRGEPRAPWVEQEGPEYWDRETQKYKRQAQTDRVSLRNLRGYYNQSEAGSHIIQRMYGCDVGPDGRLLRGYDQYAYDGKDYIALNEDLRSWTAADTAAQITQRKWEAAREAEQLRAYLEGLCVEWLRRYLKNGKETLQRAEHPKTHVTHHPVSDHEATLRCWALGFYPAEITLTWQWDGEDQTQDTELVETRPAGDGTFQKWAAVVVPSGEEQRYTCHVQHEGLPEPLTLRWEPSS	soluble
MAHHHHHHMLRKTNLFLFAASRALMSGGSSHGPTPYQDKSYPVQPHNLNELQQPPDSWRKSPIMSKLMDQSLPVYDDVVTGVGRLYWQEPARVWHLFEADDTLMLEEHDREEWNDRPYVAVNHLYEPPIGSEERPIRVEGTGNPGDQQIVLCFGNCAPHVPQSNYYMMMKGYSKTKCPMCQQWFYVHNRPWLVMHPDWTDEPAADEGPAYTFAEIEAEFDRDFHEFGVYLNAE	not soluble
MKAYRIHVQGIVQAVGFRPFVYRIAHAHNLKGFVRNLGDAGVEIVIEGNEEDIEGFLVDLYKKKPPIARIDKVEKEEIPPQGFDRFYIEKSSTEKKGEGDSIIPPDIAICDDCLKELFDPTNKRYMYPFIVCTNCGPRFTIIEDLPYDRENTAMREFPMCEFCRSEYEDPLNRRYHAEPVACPTCGPSYRLYTNDGNEIVGDPLRKAAKLIDKGYIVAIKGIGGIHLACDATREDVVVELRKRIFRPQKPFAIMAKDLETIRTFAYVSPEEEEELTSYRRPIVALKKKEPFPLPENLAPGLHTIGVMLPYAGTHYILFHWSETPVYVMTSANFPGMPMIKDNEEAFEKLRDVADYLLLHNRRIPNRADDSVVRFVDGRRAVIRRSRGFVPLGIEIPFEYKGLAVGAGLMNAFGVSKSGKVYPSQYIGDTSKIEVLEFMRDAIRHFFKILRIDSLDLVVADLHPSYNTTKLGMEIAEEFGAEFLQVQHHYAHVASVMAEHNLEEVVGIALDGVGYGTDGKTWGGEVIYLGYEDVERLAHIEYYPLPGGDLASYYPLRALIGILSLNHDFEEVEKIIREFCPNAIKSLKYGETEFKVILRQLSSGINVAYASSTGRVLDAFSVLLNVSYRRHYEGEPAMKLESFAYQGKNDLNLTVPIEGEEIKVSELFEEVLELMGKVNPRDIAYSVHLALARAFAEVSVEKAKEFGVKTVVLGGGVGYNELIVKTIRKIVEGRELRFLTTYEVPRGDNGINVGQAFLGGLYLEGYLNREDLSI	soluble
MNFDLFADEASRRWTETLAPGAVILRGHAYDDAPALLAALQTVIACAPLRNMITPGGFVMSVAMSNCGQLGWVTDEQGYRYTSHDPLSGEAWPAMPEAFSLLAKQAASEAGFADFEPDACLINRYDVGTRMSLHQDKNERDFHQPIVSVSLGLSATFLFGGMVRSDKAQRVPLTHGDVVVWGGESRLYFHGILPLKSGAVPEGMPDECRFNLTFRKAGLEHHHHHH	soluble
DIVLTQSPTTMAASPGEKITITCSASSSISSNYLHWYQQKPGFSPKLLIYRTSNLASGVPARFSGSGSGTSYSLTIGTMEAEDVATYYCQQGSSIPLTFGAGTKLELKRADAAPTVSIFPPSSEQLTSGGASVVCFLNNFYPKDINVKWKIDGSERQNGVLNSWTDQDSKDSTYSMSSTLTLTKDEYERHNSYTCEATHKTSTSPIVKSFNRNEC	soluble
MLNTRLELNKRIDNNVQLKYTEQKIFGNSKEIIGCEVLLDFEYAKKNQVAWKYLTMMHNGASLLSLIVYVNESILRYVKSNINKVFINVERISLCNSRHVGLITRLNEKMSEHNISLIVEITERGSDIPFVEIKNGLKSLQCSHVKLAMDDYDYKKTDFRSDEIFDYDYIKVDFPKTKAELDSFNNFVFLTSMFTCLIVERIENENDFFSVKNNRIWGYQGFAFCQKESFEGWSDNTSDNNVF	not soluble
MGSDKIHHHHHHEEMEKGFDPKRYARELWFKLQDMMNEGLGYDAVEVLNTLDENPELAHQKFAKVVGVSNYRYYIIQGVGEIVEIKDDGILVKVRENRKVPDLFLSNHIFGNGIVNATGIAKMEDFDRIIDFNLTATELNKIVKEEVVNSFLKQLSKGAGSVGSLVRFIAVFTLLKDEEIKYPIEAIPLYLEIQGGF	soluble
MNRTKGDEEEYWNSSKFKAFTFDDEDDELSQLKESKRAVNSLRDFVDDDDDDDLERVSWSGEPVGSISWSIRETAGNSGSTHEGREQLKSRNSFSSYAQLPKPTSTYSLSSFFRGRTRPGSFQSLSDALSDTPAKSYAPELGRPKGEYRDYSNDWSPSDTVRRLRKGKVCSLERFRSLQDKLQLLEEAVSMHDGNVITAVLIFLKRTLSKEILFRELEVRQVALRHLIHFLKEIGDQKLLLDLFRFLDRTEELALSHYREHLNIQDPDKRKEFLKTCVGLPFSAEDSAHIQDHYTLLERQIIIEANDRHLESAGQTEIFRKHPRKASILNMPLVTTLFYSCFYHYTEAEGTFSSPVNLKKTFKIPDKQYVLTALAARAKLRAWNDVDALFTTKNWLGYTKKRAPIGFHRVVEILHKNNAPVQILQEYVNLVEDVDTKLNLATKFKCHDVVIDTYRDLKDRQQLLAYRSKVDKGSAEEEKIDALLSSSQIRWKN	soluble
MALSKIDTEIEQVDQEKYLRQATSYYQPLEKPLKYGPEVNSLSDLVAALHREFESNYVNIEMVNHLMLSYKSNPREWRKYAKFDRYTYTRNLVDAGNGKFNLLILCWGEGHGSSVHDHADSHCFMKMLKGDLREKRYEYPNRSARDNGRSHHPDGEIDSRELVEIGETPIAVNDVAYINDNLGLHRVENPSHSDTSVSLHLYCPPFDTCSVFQDNLKKTTAKVTFWSKYGVRTKQNEQLEHHHHHH	not soluble
MSLSFELNPIFKRPSVSRELTKRFFFSANNGTRIILFQDSTIRWSFSSDNDHYQSMALRDSDMDVTGAIISDPGDYLCLYNSHQIRVIEIPWGLTNVDEISNSMASSLQERVYNFNEDKLSVKQVLFHPLSKSSPFLVVLFSGSQIAFVDLKNVFKSSDIPIDCFLNLTDSNVMGIDNRVENIQYVVFADDCLSLYSLTDTDVYCFYPCLPPVASLSKNRVDELINKSIVLYENLGIDADDIVRKNVIKQLQLASSLRKKIEEFENANGEVEVNVEIDLEFRQTKAQGYFSISPYPESLYTCTGKQISVLPIGEGNELFLVSFDNGTVLVVFKDKESTMSWDVNDYSFNNSFTLVEIIKFKPEELSNMVVLQGELGKFVVSGEKSTILVDTTKWSSVISKCIRDNDLRPLVGLEMKSTITHINSDMQINSCGIWNSGEAKSLLLVDTNVVVGYQLFKKEVEFKPESAEEISTELENFTLDKFTVPENELKAANYKFQEAVSVPYSKVIPANIKQVPFGSNAMEEQLKILNDISRDVGSKIVQGQSLGLMLYDRLLEQQDKLSEQLIITNKILIRAKKVQGDYPAQLSKLDEKLKKQEHLEKILLKMESNLNTIQESQKLKSLPLSEKEIQLFKELRSQILLFNNFVHKQKDQKQNIQFLKKELQKIIDISRSESSKGMLNEWEELRQILADDAKIIKECNEQLTQISKELDTKNTVTNSEGHHHHHH	soluble
MGSDKIHHHHHHMKALIEVHNLWKEYNGKEKVTALKGINLRINTGEFVVILGPSGSGKTTLLNCLSGVDRPTRGTVIIHGTDLYTLSEEERTRFRAENMGFVFQFFNLVPVLTAIENVELPLLILGVNRKEARERAFEILRKVGLAHKCDRFPEELSGGEKQRVAIARAIVHNPKVIWADEPTGALDNETGRMIIDLLMEMKENSTLVVVTHDERIAEKADRVIRIRDGQIEQDICEKAL	not soluble
MACVDISPLSYESVKSVVKYLSLKKREQINLSIPAYHKTAKLAPFKLENVGLSDLYIEVNDRTWTLSETDIIGCTLVLYRSNGYNFQHIISITPEVAFQKLISEYLRNGTRIKKFHLYALPSLLKNVELHVSELKIDGCDYETFAKFRKFIDHNQKILKEIGFVVRQNTLWMFDEQLVKNSKEIYLQFPYYNPVPLDDMLLRLKNNHVHIIYLGFPIEKLQELAMNWIDTKKPIGTSLFLVVEHYTYVIDVFEHLTKYSKAIPSRLTDLGTSFFSHCVTMHIDESSELVLFGGPMVIEWKPFKWTLRMTIMKRGSTISK	not soluble
MPRTHGYAPIGKRCHGKCNWHARGRINVIGALIGKCLLTVGLFKNNIDADTFLGWTIHDLLPKLPPASIVVMDNATFRKRQDIQNVITRGGHTLEYLPAYSPDLNPIEHKWAQTKAVRKQQNQTVEQLFKIESFYVT	not soluble
MRPVLLLCCLFLSATAQAEDCSPQTSVGSWCELPLAALHPTQQNVGLLQVEDDQAKLAGKKPKALERYLRKKEIPVVIGPGGRFYLTDRHHLSSALWRLDPKQGVPVKVIGRLPQASDFWEKMQENHWVWLHDARGAEIPPEALPDALAGLGDDPYRALAGYAEDENAFDKDRQSYFIEFHWARYFGERMHWRPISRATLPDDLKQALRLACEPAARELPGYRQDCPHKLAAALEHHHHHH	not soluble
MGSDKIHHHHHHMQQSTPYLSFRGIGKTFPGVKALTDISFDCYAGQVHALMGENGAGKSTLLKILSGNYAPTTGSVVINGQEMSFSDTTAALNAGVAIIYQELHLVPEMTVAENIYLGQLPHKGGIVNRSLLNYEAGLQLKHLGMDIDPDTPLKYLSIGQWQMVEIAKALARNAKIIAFDEPTSSLSAREIDNLFRVIRELRKEGRVILYVSHRMEEIFALSDAITVFKDGRYVKTFTDMQQVDHDALVQAMVGRDIGDIYGWQPRSYGEERLRLDAVKAPGVRTPISLAVRSGEIVGLFGLVGAGRSELMKGMFGGTQITAGQVYIDQQPIDIRKPSHAIAAGMMLCPEDRKAEGIIPVHSVRDNINISARRKHVLGGCVINNGWEENNADHHIRSLNIKTPGAEQLIMNLSGGNQQKAILGRWLSEEMKVILLDEPTRGIDVGAKHEIYNVIYALAAQGVAVLFASSDLPEVLGVADRIVVMREGEIAGELLHEQADERQALSLAMPKVSQAVA	not soluble
MGSDKIHHHHHHMKRTPGPNKRGSKRMQPNLKFSRGEFADRLAKTRRAMEARGVDLLIVSDPSNMAWLTGYDGWSFYVHQAVIVPPSGEPVWYGRGQDANGAKRTAYLAQNNIVGYADHYVQSTERHPMDFLSSVLSDRGWGKLTIGVEMDNYWFSAAAFASLQKHLPNARFVDATALVNWQRAVKSPTEIDYMRKAARIVEAMHQRIFDRIEIGMRKCDLVAEIYDAGTRGVDGIGGDYPAIVPLLPSGVDASAPHLTWDDQPMKRGEGTFFEIAGCYNRYHCPLSRTVFLGKPTQEFLDAEKATLEGMEAGLAAAKPGNACEDIANAFFAVLKKYGIVKDNRTGYSIGLSYPPDWGERTMSLRPGDHTELKPGMTFHFMTGLWLETMGLEITESILITETGVECLANVPRKLVVKN	not soluble
MKFYILLVVLVAFVAAKPHPGYGRPSYGGGYGGGGGDFGGGGSGGQWGSQSSSFQQSQSSGGFQNNAGGGFGGGMGPGGGGWGRR	not soluble
